From paper PMC7583046, “The Paralogue of the Intrinsically Disordered Nuclear Protein 1 Has a Nuclear Localization Sequence that Binds to Human Importin α3” (International Journal of Molecular Sciences, 2020)

Experiments:
[1] = ref [25]; cited from earlier work
∆Impα3 = details: CD 222 nm, 60 K/h, 50 mM phosphate pH 7.0, not reversible
Excerpt: Far-UV CD spectra were collected on a Jasco J810 spectropolarimeter (Jasco, Tokyo, Japan) with a thermostated cell holder, and interfaced with a Peltier unit at 298 K. The instrument was periodically calibrated with (+)-10-camphorsulphonic acid. A cell with a path length of 0.1 cm was used (Hellma, Kruibeke, Belgium). All spectra were corrected by subtracting the corresponding baseline. The concentration of each polypeptide (importin species and either NLS-NUPR1L or intact NUPR1L) was the same as that used in the fluorescence experiments (Section 4.4).

[2] = cited from earlier work
prothymosin α = details: ref [14]; cited from earlier work
Excerpt: In this aspect, NLS-NUPR1L behaves not differently from any other NLS region of a well-folded protein [15, 20, 22, 40]; that is, it is disordered both in isolation and when participating in forming the complex with impo ...

[3] = target: T1, human importin α3 (Impα3), intact (human, UniProt O00629 1-521); test: other fluorescence titration; importin (0-10 μM) added to a fixed concentration of NUPR1L (8 μM) or NLS-NUPR1L (8.5 μM); 50 mM phosphate buffer, pH 7.0, 298 K; excitation at 280 nm; apparent dissociation constants; details: both partners purified
T1 construct: Human importin α3 (KPNA4), intact protein with the IBB domain, residues 1-521; Purification as for ∆Impα3; also called KPNA4; source: E. coli BL21 (DE3), purified (codon-optimized DNA synthesized by NZYtech, in the pHTP1 vector)
T1 sequence (looked up): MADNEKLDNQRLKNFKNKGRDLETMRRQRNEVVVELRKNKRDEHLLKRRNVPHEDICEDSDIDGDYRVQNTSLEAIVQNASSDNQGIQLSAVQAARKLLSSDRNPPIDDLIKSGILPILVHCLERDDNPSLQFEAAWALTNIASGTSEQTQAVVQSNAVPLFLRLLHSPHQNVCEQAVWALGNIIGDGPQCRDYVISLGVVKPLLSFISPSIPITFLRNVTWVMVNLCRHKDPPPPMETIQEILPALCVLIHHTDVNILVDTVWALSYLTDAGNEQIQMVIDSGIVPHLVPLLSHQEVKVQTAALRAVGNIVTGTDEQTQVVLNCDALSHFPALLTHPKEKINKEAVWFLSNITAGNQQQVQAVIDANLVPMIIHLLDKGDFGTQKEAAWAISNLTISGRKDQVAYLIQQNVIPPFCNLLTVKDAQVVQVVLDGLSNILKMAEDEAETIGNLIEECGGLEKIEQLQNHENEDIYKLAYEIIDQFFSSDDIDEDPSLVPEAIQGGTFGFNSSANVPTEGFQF

[4] = target: T2, ∆Impα3, truncated species of human importin α3 (residues 64-521) depleted of the IBB (human, UniProt O00629 64-521); test: as above; details: both partners purified
T2 construct: source: E. coli BL21 (DE3), purified (codon-optimized)
T2 sequence (looked up): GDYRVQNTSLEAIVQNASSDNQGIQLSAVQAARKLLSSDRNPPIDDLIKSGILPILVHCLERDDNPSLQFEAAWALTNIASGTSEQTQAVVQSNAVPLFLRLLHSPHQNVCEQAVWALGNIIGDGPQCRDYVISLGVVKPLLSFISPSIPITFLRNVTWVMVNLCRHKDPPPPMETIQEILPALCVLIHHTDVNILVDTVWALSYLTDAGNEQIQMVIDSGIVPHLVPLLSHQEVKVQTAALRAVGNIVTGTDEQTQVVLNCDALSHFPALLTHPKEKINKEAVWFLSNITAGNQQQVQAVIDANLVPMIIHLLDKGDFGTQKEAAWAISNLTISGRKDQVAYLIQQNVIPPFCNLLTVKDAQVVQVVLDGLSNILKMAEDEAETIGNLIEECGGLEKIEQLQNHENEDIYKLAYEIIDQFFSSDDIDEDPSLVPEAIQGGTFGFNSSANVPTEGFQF

[5] = target: T1, human importin α3 (Impα3), intact; test: ITC; Impα3 or ∆Impα3 (10-20 μM) in the cell, NLS-NUPR1L (150-300 μM) in the syringe; Tris 50 mM, pH 8, 298 K; single ligand binding site model; details: both partners purified
[6] = target: T2, ∆Impα3, truncated species of human …; test: as above; details: both partners purified
[7] = target: T1, human importin α3 (Impα3), intact; test: other fluorescence titration; importin (0-10 μM) added to a fixed concentration of NUPR1L (8 μM) or NLS-NUPR1L (8.5 μM); 50 mM phosphate buffer, pH 7.0, 298 K; excitation at 280 nm; apparent dissociation constants; details: both partners purified; remark: listed apart in the source
[8] = target: T2, ∆Impα3, truncated species of human …; test: as above; details: both partners purified; remark: listed apart in the source

B1: Impα3: Human importin α3 isoform (residues 1–521) (protein, UniProt O00629 1-521, looked up)
chain: MADNEKLDNQRLKNFKNKGRDLETMRRQRNEVVVELRKNKRDEHLLKRRNVPHEDICEDSDIDGDYRVQNTSLEAIVQNASSDNQGIQLSAVQAARKLLSSDRNPPIDDLIKSGILPILVHCLERDDNPSLQFEAAWALTNIASGTSEQTQAVVQSNAVPLFLRLLHSPHQNVCEQAVWALGNIIGDGPQCRDYVISLGVVKPLLSFISPSIPITFLRNVTWVMVNLCRHKDPPPPMETIQEILPALCVLIHHTDVNILVDTVWALSYLTDAGNEQIQMVIDSGIVPHLVPLLSHQEVKVQTAALRAVGNIVTGTDEQTQVVLNCDALSHFPALLTHPKEKINKEAVWFLSNITAGNQQQVQAVIDANLVPMIIHLLDKGDFGTQKEAAWAISNLTISGRKDQVAYLIQQNVIPPFCNLLTVKDAQVVQVVLDGLSNILKMAEDEAETIGNLIEECGGLEKIEQLQNHENEDIYKLAYEIIDQFFSSDDIDEDPSLVPEAIQGGTFGFNSSANVPTEGFQF
modifications: full-length
**Q.** Which “solubility (relative to other importin species)” value [1] does the source give for B1 here?
**A.** Its value is “larger solubility”.

B2: NUPR1L, the NUPR1-like paralogue (intact) (natural protein, UniProt A6NF83 1-97, looked up)
chain: MEAPAERALPRLQALARPPPPISYEEELYDCLDYYYLRDFPACGAGRSKGRTRREQALRTNWPAPGGHERKVAQKLLNGQRKRRQRQLHPKMRTRLT
notes: NUPR1L, 97-residue-long paralogue of NUPR1, intact protein; one tryptophan (Trp62) and five tyrosines; concentrations are in protomer units; also called intact NUPR1L; source: expressed and purified as described [14]
**Q.** Which results are given for B2?
**A.** apparent thermal midpoint of unfolding of ∆Impα3, in presence of NUPR1L (∆Impα3; 15 μM NUPR1L, 5 μM importin): 323 K; self-association state in solution ([2]; intact protein in solution, no reference at the place): oligomer; tendency to aggregate ([2]; intact protein, ref [14]): high tendency to aggregate; involvement of Trp62 in binding to prothymosin α (prothymosin α): Trp62 is also involved in the binding of NUPR1L to prothymosin α; Kd [3]: 4 ± 0.7 µM; Kd [4]: 5 ± 1 µM

B3: NLS-NUPR1L, peptide of the nuclear localization sequence of NUPR1L (residues 51-74) (peptide)
peptide: Ac-RTRREQALRTNWPAPGGHERKVAQ-NH2
notes: NUPR1L residues Arg51 to Gln74, the predicted NLS region; numbering as in intact NUPR1L; also called NLS-NUNPR1L; source: synthetic peptide (NZYtech, purity of 95%)
**Q.** Which results are given for B3?
**A.** Kd [5]: 12 ± 2 µM; dH [5]: -3.1 ± 0.5 kcal/mol; stoichiometry N [5]: 1.04 ± 0.05; Kd [6]: 5.5 ± 0.9 µM; dH [6]: -2.4 ± 0.5 kcal/mol; stoichiometry N [6]: 0.75 ± 0.06; Kd [7]: 3 ± 1 µM; Kd [8]: 5 ± 2 µM

B4: ∆Impα3: Truncated species of Impα3 (residues 64-521) depleted of the IBB (protein, UniProt O00629 64-521, looked up, fragment)
chain: GDYRVQNTSLEAIVQNASSDNQGIQLSAVQAARKLLSSDRNPPIDDLIKSGILPILVHCLERDDNPSLQFEAAWALTNIASGTSEQTQAVVQSNAVPLFLRLLHSPHQNVCEQAVWALGNIIGDGPQCRDYVISLGVVKPLLSFISPSIPITFLRNVTWVMVNLCRHKDPPPPMETIQEILPALCVLIHHTDVNILVDTVWALSYLTDAGNEQIQMVIDSGIVPHLVPLLSHQEVKVQTAALRAVGNIVTGTDEQTQVVLNCDALSHFPALLTHPKEKINKEAVWFLSNITAGNQQQVQAVIDANLVPMIIHLLDKGDFGTQKEAAWAISNLTISGRKDQVAYLIQQNVIPPFCNLLTVKDAQVVQVVLDGLSNILKMAEDEAETIGNLIEECGGLEKIEQLQNHENEDIYKLAYEIIDQFFSSDDIDEDPSLVPEAIQGGTFGFNSSANVPTEGFQF
**Q.** Which “apparent thermal midpoint of unfolding of isolated ∆Impα3” value (∆Impα3; absence of NUPR1L) does the source give for B4 here?
**A.** The value was 317 K.

**Q.** And the “solubility (relative to other importin species)” value [1]?
**A.** The value was “lower solubility”.
